Experimental data as given in patent US20080268549A1, “THIOFLAVIN T METHOD FOR DETECTION OF AMYLOID POLYPEPTIDE FIBRIL AGGREGATION” (priority 2007, published 2008).
Entries after “also recorded” stand apart in the source; their conditions may differ.

Experiments:
β-amyloid peptide (1-40) = molecular target: T1, β-amyloid peptide (1-40) (Homo sapiens, UniProt P05067); assay: Thioflavin T fluorescence assay of Aβ fibril aggregation; format: biochemical; conditions: FIG. 5
T1 construct: β-amyloid peptide (1-40) can be obtained from Biosource; purchased Biosource (Camarillo, Calif.)
Protocol: (1) Prepare a stock ThT solution (1 mg/ml; 3.14 mM) in distilled, deionized water, aliquot into small samples and store long term at −20° C. in the dark. Thaw frozen samples only once and discard the remainder. Add 1.6 μl of ThT solution to 1.0 ml of 50 mM Tris buffer, pH 7.4 to yield a final 5.0 μM ThT solution.
(2) β-amyloid peptide (1-40) can be obtained from Biosource (Camarillo, Calif.), CLN from ReGen Therapeutics Plc (London, UK) and Thioflavin T from Sigma (St. Louis, Mo.). Prepare a stock solution of β-amyloid (by dissolving in 10 mM NaOH (0.5 mg/ml) and stored at −70° C. until used. Aβ in base is stable for at least 3 weeks frozen. Add 5.0 μl (2.5 μg) of β-amyloid stock solution to 1.0 ml of ThT/Tris buffer solution. It is preferable to avoid any contact with metal when preparing a amyloid solution since metal can oxidize the peptide.
(3) Measure the fluorescence intensity of 1.0 ml of Aβ/ThT/Tris solution using an excitation wavelength of 440 nm and an emission wavelength of 482 nm. A control solution of Aβ/Tris solution, without ThT can be used as a control. The fluorescence intensity above the control is used as a measure of fibril content.
(4) If the assay is intended to measure the change in Aβ aggregation and used to quantitate the effect of test agents, prepare a second sample containing the drug or agent as in step 2. Preincubate the samples for the appropriate length of time (usually days to weeks) required to yield a change in fluorescence intensity.
Samples of Aβ in base were prepared as described in Example 1. ThT in Tris buffer was then added to the sample together with CLN at a concentration range of 2.5-10 nM and was preincubated for either 1 or 2 days and the fluorescence intensity measured following the above procedure. […] After a 2-day treatment with 10 nM CLN, approximately 50% of the Aβ fibrils are dissolved.

Aβ (1-40) = molecular target: T2, Aβ (1-40) (Homo sapiens, UniProt P05067); assay: Circular dichroism spectra of Aβ secondary structure
T2 construct: β-amyloid peptide (1-40) can be obtained from Biosource; purchased Biosource (Camarillo, Calif.)
Protocol: CD is routinely used to monitor changes in secondary structure (Wang et al., 2005). In order to verify that CLN does indeed cause a shift in secondary structure, a CD spectra of Aβ treated with CLN and control were taken at 24 and 48 h. For these experiments, a 10 μM solution of Aβ (1-40) (first solubilized in base as in previous examples) was prepared in 50 mM Tris buffer, pH 7.4, with and without 50 nM CLN and ThT. Circular dichroism (CD) spectra of the Aβ (1-40) peptide solutions were recorded using a Jasco J-715 CD spectropolarimeter at 25° C. using a bandwidth of 1.0 nm, a sensitivity of 0.5 nm and a recording speed of 50 nm/min. The results were plotted as ellipticity (mdeg) versus wavelength (nm).

T2 sequence (P05067 672-711 limits assumed): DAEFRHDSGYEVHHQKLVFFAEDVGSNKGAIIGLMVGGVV
T1 sequence (P05067 672-711 limits assumed): as above

Molecule	Aβ fibrils dissolved (β-amyloid peptide (1-40); 10 nM CLN, 2-day treatment)	decrease in Aβ aggregation (ThT fluorescence), maximum (β-amyloid peptide (1-40); 10 nM CLN, at 2 days)	effect on Aβ aggregation (ThT fluorescence) (β-amyloid peptide (1-40); CLN 2.5-10 nM, preincubated 1 or 2 days)	effect on secondary structure (conformation) of Aβ by CD spectra (Aβ (1-40); 10 μM Aβ (1-40), 50 nM CLN, 50 mM Tris pH 7.4, 24 and 48 h, FIG. 6A)	effect of ThT on conformation of CLN treated Aβ samples by CD spectra (Aβ (1-40); 10 μM Aβ (1-40) with 50 nM CLN and ThT, FIG. 6B)
colostrinin [CLN]	approximately 50%	40%	dose-dependent decrease	shift from β-sheet to α-helix; also recorded: shifted to a random-coil/α-helical rich conformation	
Cc1ccc2c(c1)sc(-c1ccc(N(C)C)cc1)[n+]2C.[Cl-] [ThT, Thioflavin T]					did not have an effect
